Reference: EP4810052A2 (Gubra A/S, dated 2026)
Non-standard residues stand in square brackets, D forms with d. No end group written: not given here. NMeI = CC[C@H](C)[C@H](NC)C(=O)O; Nle = CCCC[C@H](N)C(=O)O; lip = not defined here; Aib = CC(C)(N)C(=O)O

T1: human corticotropin-releasing hormone receptor 1 (human, UniProt P34998 24-415)
T1 sequence (looked up): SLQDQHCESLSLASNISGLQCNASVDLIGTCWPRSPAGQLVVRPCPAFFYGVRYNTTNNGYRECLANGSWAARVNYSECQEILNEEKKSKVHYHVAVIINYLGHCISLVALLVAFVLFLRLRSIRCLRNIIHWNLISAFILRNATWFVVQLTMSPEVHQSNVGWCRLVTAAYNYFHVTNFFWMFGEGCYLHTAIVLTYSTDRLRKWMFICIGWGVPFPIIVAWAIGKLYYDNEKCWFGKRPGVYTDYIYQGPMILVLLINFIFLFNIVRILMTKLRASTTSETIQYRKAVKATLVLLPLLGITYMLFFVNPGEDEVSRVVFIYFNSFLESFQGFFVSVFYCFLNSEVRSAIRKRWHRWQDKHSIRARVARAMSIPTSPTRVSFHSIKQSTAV

B1: SEQ ID NO: 12 (peptide)
peptide: IVLSLDVPIGLLQILLEQARARAAREQAK(lip)TNLEILAEV-NH2
modifications: not fully specified; reading uncertain
B2: SEQ ID NO: 13 (peptide)
peptide: IVLSLDVPIGLLQILLEQARARAAREQAK(lip)TNIEILAEV-NH2
modifications: not fully specified; reading uncertain
B3: SEQ ID NO: 14 (peptide)
peptide: IVLSLDVPIGLLQILLEQARARAAREQAK(lip)TNVEILAEV-NH2
modifications: not fully specified; reading uncertain
B4: SEQ ID NO: 15 (peptide)
peptide: IVLSLDVPIGLLQILLEQARARAAREQAK(lip)TN[Aib]EILAEV-NH2
modifications: reading uncertain
B5: SEQ ID NO: 17 (peptide)
peptide: IVLSLDVPIGLLQILLEQARARAAREQAK(lip)ENAEILAEV-NH2
modifications: not fully specified; reading uncertain
B6: SEQ ID NO: 18 (peptide)
peptide: [NMeI]VLSLDVPIGLLQILLEQARARAAREQAK(lip)ENAEILAEV-NH2
modifications: reading uncertain
B7: SEQ ID NO: 19 (peptide)
peptide: IVLSLDVPIGLLQILLEQARARAAREQAK[Aib]NAEILAEV-NH2
modifications: not fully specified (residue 29); also: lipid and spacer on Lys29 not given here
B8: SEQ ID NO: 20 (peptide)
peptide: [NMeI]VLSLDVPIGLLQILLEQARARAAREQAK[Aib]NAEILAEV-NH2
modifications: not fully specified (residue 29); also: lipid and spacer on Lys29 not given here
B9: SEQ ID NO: 5 (peptide)
peptide: [NMeI]VLSLDVPIGLLQILLEQARARAAREQAKTNAEILAEV-NH2
modifications: not fully specified (residue 29); also: lipid and spacer on Lys29 not given here
B10: SEQ ID NO: 7 (peptide)
peptide: PVLSLDVPIGLLQILLEQARARAAREQAK(lip)TNAEILAEV-NH2
modifications: not fully specified; reading uncertain
B11: SEQ ID NO: 8 (peptide)
peptide: Ac-IVLSLDVPIGLLQILLEQARARAAREQAK(lip)TNAEILAEV-NH2
modifications: not fully specified; reading uncertain
B12: SEQ ID NO: 9 (prior art peptide) (peptide)
peptide: [NMeI]VLSLDVPIGLLQILLEQEKQEKEKQQAK(lip)TNAQILAQV-NH2
modifications: not fully specified; reading uncertain
B13: SEQ ID NO: 10 (prior art peptide) (peptide)
peptide: [NMeI]VTSLDVPIGLLQILLEQEKQEKEKQQAK(lip)TNAEILAQV-NH2
modifications: reading uncertain
B14: SEQ ID NO: 11 (prior art peptide) (peptide)
peptide: K(lip)IVLSLDVPIGLLQILLEQARARAAREQATTNAEILAEV-NH2
modifications: not fully specified; reading uncertain
B15: SEQ ID NO: 260 (peptide)
peptide: lip-IVLSLDVPIGLLQILLEQARARAAREQATTNAEILAEV-NH2
modifications: not fully specified; reading uncertain
B16: SEQ ID NO: 261 (peptide)
peptide: IVLSLDVPIGLK(lip)QILLEQARARAAREQATTNAEILAEV-NH2
modifications: not fully specified; reading uncertain
B17: SEQ ID NO: 2 (lipidated version of native UCN2) (peptide)
peptide: IVLSLDVPIGLLQILLEQARARAAREQAK(lip)TNARILARV-NH2
modifications: not fully specified; reading uncertain
B18: SEQ ID NO: 4 (peptide)
peptide: IVLSLDVPIGLLQILLEQARARAAREQATK(lip)NAEILAEV-NH2
modifications: not fully specified; reading uncertain
B19: SEQ ID NO: 45 (peptide)
peptide: IVLSLDVPIGLLQILLEQARARAAREQAKTNAEI[Nle]AEV-NH2
modifications: not fully specified (residue 29); also: lipid and spacer on Lys29 not given here
B20: SEQ ID NO: 83 (peptide)
peptide: IVLSLDVPIGLLQILLSQARARAAREQAK(lip)TNAEI[Nle]AEV-NH2
modifications: not fully specified; reading uncertain
B21: SEQ ID NO: 69 (peptide)
peptide: IVLSLDVPIGLLQILLEQARARAAREQAKTNAEI[Nle]AEI-NH2
modifications: not fully specified (residue 29); also: lipid and spacer on Lys29 not given here
B22: SEQ ID NO: 89 (peptide)
peptide: IVLSLDVPIGLLQILLSQARARAAREQAK(lip)TNAEI[Nle]AEI-NH2
modifications: not fully specified; reading uncertain
B23: SEQ ID NO: 234 (peptide)
peptide: IVLSLDVPIGLLQILLSQARARAAREQAKTN[Aib]EI[Nle]AEV-NH2
modifications: not fully specified (residue 29); also: lipid and spacer on Lys29 not given here
B24: SEQ ID NO: 236 (peptide)
peptide: IVLSLDVPIGLLQILLEQARARAAREQAK[Aib]NAEI[Nle]AEI-NH2
modifications: not fully specified (residue 29); also: lipid and spacer on Lys29 not given here
B25: SEQ ID NO: 237 (peptide)
peptide: IVLSLDVPIGLLQILLSQARARAAREQAK[Aib]NAEI[Nle]AEV-NH2
modifications: not fully specified (residue 29); also: lipid and spacer on Lys29 not given here
B26: SEQ ID NO: 239 (peptide)
peptide: IVLSLDVPIGLLQILLSQARARAAREQAKENAEI[Nle]AEV-NH2
modifications: not fully specified (residue 29); also: lipid and spacer on Lys29 not given here
B27: SEQ ID NO: 132 (peptide)
peptide: [NMeI]VLSLDVPIGLLQILLSQARARAAREQAK(lip)[Aib]NAEI[Nle]AEV-NH2
modifications: reading uncertain
B28: SEQ ID NO: 101 (peptide)
peptide: [NMeI]VLSLDVPIGLLQILLSQARARAAREQAK(lip)ENAEI[Nle]AEV-NH2
modifications: reading uncertain

target: T1, human corticotropin-releasing hormone …; experiment: cell-based or functional assay

B1 and B2 cannot be ordered by “hCRHR1 EC50 (nM); HTRF cAMP assay, CHO-K1 cells stably expressing hCRHR1” value (“hCRHR1 EC50 (nM); HTRF cAMP assay” for short): greater than 5000 nM for the first, greater than 5000 nM for the second.

B3 and B4 cannot be ordered by “hCRHR1 EC50 (nM); HTRF cAMP assay” value: greater than 5000 nM for the first, greater than 5000 nM for the second.

B5 and B6 cannot be ordered by “hCRHR1 EC50 (nM); HTRF cAMP assay” value: greater than 5000 nM for the first, greater than 5000 nM for the second.

B7 and B8 cannot be ordered by “hCRHR1 EC50 (nM); HTRF cAMP assay” value: greater than 5000 nM for the first, greater than 5000 nM for the second.

target: T1, human corticotropin-releasing hormone …; experiment: cell-based or functional assay; remark: another data set of the same source

B9 and B10 cannot be ordered by “hCRHR1 EC50 (nM); HTRF cAMP assay” value: greater than 5000 nM for the first, greater than 5000 nM for the second.

B11 and B12 are within 1.5-fold of each other in “hCRHR1 EC50 (nM); HTRF cAMP assay” value: 560 nM for the first, 510 nM for the second.

Compared with B13, B14 is 9.9-fold higher in “hCRHR1 EC50 (nM); HTRF cAMP assay” value: 68 nM for the first, 670 nM for the second.

First: B15
Second: B16
The “hCRHR1 EC50 (nM); HTRF cAMP assay” value of the first is lower: 110 nM for the first, greater than 5000 nM for the second.

B17 and B18 cannot be ordered by “hCRHR1 EC50 (nM); HTRF cAMP assay” value: greater than 5000 nM for the first, greater than 5000 nM for the second.

target: T1, human corticotropin-releasing hormone …; experiment: cell-based or functional assay; remark: another data set of the same source

Going from B19 to B20, the “hCRHR1 EC50 (nM); HTRF cAMP assay” value rises from 56 nM to greater than 5000 nM.

B21 and B22 cannot be ordered by “hCRHR1 EC50 (nM); HTRF cAMP assay” value: greater than 5000 nM for the first, greater than 5000 nM for the second.

B23 and B24 cannot be ordered by “hCRHR1 EC50 (nM); HTRF cAMP assay” value: greater than 5000 nM for the first, greater than 5000 nM for the second.

B25 and B26 cannot be ordered by “hCRHR1 EC50 (nM); HTRF cAMP assay” value: greater than 5000 nM for the first, greater than 5000 nM for the second.

B27 and B28 cannot be ordered by “hCRHR1 EC50 (nM); HTRF cAMP assay” value: greater than 5000 nM for the first, greater than 5000 nM for the second.
